{"source": "patent US20260159575A1", "binders": {"B1": {"name": "antibody E2814 (antibody, human IgG1, kappa, V domains shown)", "VH": "EVQLLESGGGLVQPGGSLRLSCAASGYTFTTYWITWVRQAPGKGLEWVSDIYPGSSISNYNEKFKSRFTISVDNSKNTLYLQMNSLRAEDTAVYYCAREDGYDAWFAYWGQGTLVTVSS", "VL": "DIQMTQSPSSLSASVGDRVTITCRSSQSILHSNGNTYLEWYQQKPGKAPKLLISKVSNRFSGVPSRFSGSGSGTDFTLTISSLQPEDFATYYCFQGSHVPFTFGQGTKLEIKR"}}, "target": "MTBR-tau354 (human) (UniProt P10636)", "experiment": "target engagement in human CSF, ex vivo; multiple dose 3000 mg Q4W, E2814 CSF concentrations 200-400 ng/mL; bound/(free+bound) proxy peptide", "data": [{"binder": "B1", "values": [{"measurement": "target engagement (E2814-bound MTBR-tau as percent of total free plus bound)", "result": 70, "unit": "%"}]}]}
